In patent US20250144141A1 (CDR LIFE, published 2025):

What was measured:
[1] = target: T1, HLA-A*02:01/MAGE-A4 complex (human, UniProt P04439 25-299 at identity 0.94); P61769 21-119); experiment: not stated in the sentence (SPR is described in Example 7)
T1 construct: Coated on ELISA plates and on a streptavidin SPR chip; a biotin tag is not described; also called HLA-A2/MAGE-A4 complex; pMHC-MAGE-A4

[2] = target: CD3 heterodimer (Acro Biosystems) (UniProt P07766 23-126); experiment: not stated in the sentence (SPR on a CD3 heterodimer chip is described in Example 7)
Chain of CD3 heterodimer (Acro Biosystems) (P07766 23-126, one chain of several): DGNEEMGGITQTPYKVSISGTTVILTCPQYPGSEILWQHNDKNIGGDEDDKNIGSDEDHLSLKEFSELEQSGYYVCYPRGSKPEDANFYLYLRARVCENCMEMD

B1: M1048 (bispecific antibody)
chain 1: EVQLVESGGGLVQPGGSLRLSCAASGFTFSTYAMNWVRQAPGKGLEWVGRIRSKYNNYATYYADSVKGRFTISRDDSKNTLYLQMNSLRAEDTAVYYCVRHGNFGDSYVSWFAYWGQGTLVTVSSASTKGPSVFPLAPSSKSTSGGTAALGCLVKDYFPEPVTVSWNSGALTSGVHTFPAVLQSSGLYSLSSVVTVPSSSLGTQTYICNVNHKPSNTKVDKRVEPKSCGGGGSSYELTQPPSVSVSPGQTASITCTADTLSRSYASWYQQKPGQSPVLVIYRDTSRPSGIPERFSGSNSGNTATLTISGTQAMDEADYYCATRPSSGSNFQLFGGGTKLTVLGGGGGGSGGGGSGGGGSGGGGSESQVLESGGGSVQPGGSLRLSCTVSGFSLSNYAMSWVRQAPGKGLEYIGIVSSGGTTYYASWAKGRFTISKDTSKNTVYLQMNSLRAEDTASYYCAKDLYYGPTTYSAFNLWGQGTSVTVSS
chain 2: QAVVTQEPSLTVSPGGTVTLTCGSSTGAVTTSNYANWVQQKPGKSPRGLIGGTNKRAPGVPARFSGSLLGGKAALTISGAQPEDEADYYCALWYSNHWVFGGGTKLTVLGQPKAAPSVTLFPPSSEELQANKATLVCLISDFYPGAVTVAWKADSSPVKAGVETTTPSKQSNNKYAASSYLSLTPEQWKSHRSYSCQVTHEGSTVEKTVAPTECSGGGGSSYELTQPPSVSVSPGQTASITCTADTLSRSYASWYQQKPGQSPVLVIYRDTSRPSGIPERFSGSNSGNTATLTISGTQAMDEADYYCATRPSSGSNFQLFGGGTKLTVLGGGGGGSGGGGSGGGGSGGGGSESQVLESGGGSVQPGGSLRLSCTVSGFSLSNYAMSWVRQAPGKGLEYIGIVSSGGTTYYASWAKGRFTISKDTSKNTVYLQMNSLRAEDTASYYCAKDLYYGPTTYSAFNLWGQGTSVTVSS
[1]
  Kd: 0.25 nM
[2]
  Kd: 10 nM
